This note sets out measurements from patent EP2074145B1.

The assay concerns the target Amyloid Beta (antigen of the Amyloid Beta ELISA) (UniProt P05067). Kind of assay: Amyloid Beta ELISA; purified antibodies from stable NS0 cell lines.

Amyloid Beta (antigen of the Amyloid Beta ELISA), sequence (P05067 672-713 limits assumed): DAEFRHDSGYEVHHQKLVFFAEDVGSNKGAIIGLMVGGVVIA

B1: humanized antibody C2 HuVH2/HuVK3 (antibody, human IgG4 S228P, kappa, V domains shown)
VH: EVQLVESGGGLVQPGGSLRLSCAASGFTFSSYGMSWVRQAPGKGLEWVASINSNGGSTYYPDSVKGRFTISRDNAKNSLYLQMNSLRAEDTAVYYCASGDYWGQGTTVTVSS
VL: DIVMTQSPLSLPVTPGEPASISCRSSQSLVYSNGDTYLHWYLQKPGQSPKLLIYKVSNRFSGVPDRFSGSGSGTDFTLKISRVEAEDVGVYYCSQSTHVPWTFGQGTKVEIKR
Take B1: the fold reduction of binding activity compared to chimeric control antibody C2 ChVHAF/ChVK amounted to 2 fold.
